Legend:
Assay in all cases: holdup assay
Design in all cases: key: below the threshold = too weak to quantify, mostly under pKd 3.1 to 4
APBA3_2, O96018 = target: T1, APBA3_2, O96018
T1 sequence (O96018 480-570, limits assumed, looked up): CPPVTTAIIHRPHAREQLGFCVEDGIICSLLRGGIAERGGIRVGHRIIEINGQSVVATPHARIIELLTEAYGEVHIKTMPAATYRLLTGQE

CNKSR3, Q6P9H4 = target: CNKSR3, Q6P9H4
DLG2_1, Q15700 = target: DLG2_1, Q15700
GIPC1, O14908 = target: T2, GIPC1, O14908; conditions: plain residues with an end cap or a label only (N-terminal biotin on a linker: (peg)3)
T2 sequence (O14908 128-223, limits assumed, looked up): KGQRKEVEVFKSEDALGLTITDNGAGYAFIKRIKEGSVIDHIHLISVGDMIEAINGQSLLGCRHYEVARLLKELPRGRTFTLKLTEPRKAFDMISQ

IL16_2, Q14005 = target: IL16_2, Q14005
LNX2_1, Q8N448 = target: T3, LNX2_1, Q8N448
T3 sequence (Q8N448 228-328, limits assumed, looked up): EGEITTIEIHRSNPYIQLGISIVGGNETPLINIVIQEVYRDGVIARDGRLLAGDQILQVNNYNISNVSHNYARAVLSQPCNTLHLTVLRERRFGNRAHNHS

MAGI1_5, Q96QZ7 = target: MAGI1_5, Q96QZ7
MAGI3_3, Q5TCQ9 = target: MAGI3_3, Q5TCQ9
MPDZ_2, O75970 = target: T4, MPDZ_2, O75970
T4 sequence (O75970 252-347, limits assumed, looked up): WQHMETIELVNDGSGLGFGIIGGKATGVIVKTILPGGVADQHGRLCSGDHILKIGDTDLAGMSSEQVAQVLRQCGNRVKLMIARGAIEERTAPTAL

MPDZ_7, O75970 = target: T5, MPDZ_7, O75970
T5 sequence (O75970 1146-1253, limits assumed, looked up): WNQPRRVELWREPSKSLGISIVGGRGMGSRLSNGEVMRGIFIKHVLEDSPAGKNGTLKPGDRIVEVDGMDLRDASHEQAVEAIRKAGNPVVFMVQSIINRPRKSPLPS

MPP1, Q00013 = target: T6, MPP1, Q00013
T6 sequence (Q00013 66-162, limits assumed, looked up): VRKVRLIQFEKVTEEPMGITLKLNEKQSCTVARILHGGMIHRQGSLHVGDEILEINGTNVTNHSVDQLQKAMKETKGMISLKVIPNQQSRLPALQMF

PARD3B_3, Q8TEW8 = target: PARD3B_3, Q8TEW8
PARD3_1, Q8TEW0 = target: PARD3_1, Q8TEW0
PDLIM4, P50479 = target: PDLIM4, P50479
PDZD2_1, O15018 = target: T7, PDZD2_1, O15018
T7 sequence (O15018 80-192, limits assumed, looked up): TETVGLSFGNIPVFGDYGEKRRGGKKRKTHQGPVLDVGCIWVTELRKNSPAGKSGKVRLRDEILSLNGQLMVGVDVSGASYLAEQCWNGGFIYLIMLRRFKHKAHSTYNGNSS

PDZD4, Q76G19 = target: T8, PDZD4, Q76G19
T8 sequence (Q76G19 125-224, limits assumed, looked up): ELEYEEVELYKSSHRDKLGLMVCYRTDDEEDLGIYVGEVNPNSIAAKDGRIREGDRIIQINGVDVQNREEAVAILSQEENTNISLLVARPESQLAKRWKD

PDZD8, Q8NEN9 = target: T9, PDZD8, Q8NEN9
T9 sequence (Q8NEN9 361-459, limits assumed, looked up): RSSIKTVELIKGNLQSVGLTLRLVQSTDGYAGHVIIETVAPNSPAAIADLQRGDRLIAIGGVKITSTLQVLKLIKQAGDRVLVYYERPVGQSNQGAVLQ

PDZD9, Q8IXQ8 = conditions: plain residues with an end cap or a label only (N-terminal biotin on a linker: (peg)3)
PREX2_2, Q70Z35 = target: T10, PREX2_2, Q70Z35
T10 sequence (Q70Z35 672-764, limits assumed, looked up): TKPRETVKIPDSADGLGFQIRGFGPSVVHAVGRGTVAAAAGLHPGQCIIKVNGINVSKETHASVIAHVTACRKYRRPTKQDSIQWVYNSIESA

PTPN4, P29074 = target: T11, PTPN4, P29074
T11 sequence (P29074 512-599, limits assumed, looked up): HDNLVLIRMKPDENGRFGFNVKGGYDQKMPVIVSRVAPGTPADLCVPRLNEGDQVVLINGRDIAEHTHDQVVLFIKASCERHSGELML

RIMS1, Q86UR5 = target: RIMS1, Q86UR5
RIMS2, Q9UQ26 = conditions: plain residues with an end cap or a label only (N-terminal biotin on a linker: (peg)3)
SCRIB_4, Q14160 = target: SCRIB_4, Q14160
SDCBP_1, O00560 = target: SDCBP_1, O00560
SHROOM4, Q9ULL8 = target: T12, SHROOM4, Q9ULL8
T12 sequence (Q9ULL8 5-102, limits assumed, looked up): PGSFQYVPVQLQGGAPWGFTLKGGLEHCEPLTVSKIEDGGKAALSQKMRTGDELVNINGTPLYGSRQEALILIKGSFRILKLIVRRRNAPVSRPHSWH

[1] = plain residues with an end cap or a label only (N-terminal biotin on a linker: (peg)3)
[2] = modified: phospho on T at position -2 from the C-terminal residue

Measured: pKd

Chain of SDCBP_1, O00560 (O00560 111-198): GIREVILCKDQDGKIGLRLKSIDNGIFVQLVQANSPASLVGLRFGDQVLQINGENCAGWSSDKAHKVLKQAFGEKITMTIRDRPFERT
Chain of RIMS1, Q86UR5 (Q86UR5 584-692): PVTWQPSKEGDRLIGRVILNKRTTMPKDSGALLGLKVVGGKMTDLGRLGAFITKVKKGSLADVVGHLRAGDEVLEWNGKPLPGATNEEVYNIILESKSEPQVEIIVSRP
Chain of PARD3B_3, Q8TEW8 (Q8TEW8 490-594): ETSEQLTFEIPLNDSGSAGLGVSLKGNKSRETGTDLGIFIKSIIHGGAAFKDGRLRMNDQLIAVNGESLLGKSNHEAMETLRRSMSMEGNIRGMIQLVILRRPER
Chain of CNKSR3, Q6P9H4 (Q6P9H4 203-303): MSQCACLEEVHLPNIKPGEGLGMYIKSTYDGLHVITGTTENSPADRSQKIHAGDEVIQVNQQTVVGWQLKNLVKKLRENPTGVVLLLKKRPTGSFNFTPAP
Chain of PDZD9, Q8IXQ8 (Q8IXQ8 23-120): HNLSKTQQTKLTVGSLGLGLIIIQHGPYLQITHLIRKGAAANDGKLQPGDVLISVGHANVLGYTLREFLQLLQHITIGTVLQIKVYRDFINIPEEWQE
Chain of MAGI3_3, Q5TCQ9 (Q5TCQ9 572-655): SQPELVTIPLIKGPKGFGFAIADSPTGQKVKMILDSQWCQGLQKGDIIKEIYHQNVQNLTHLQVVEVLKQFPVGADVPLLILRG
Chain of IL16_2, Q14005 (Q14005 350-450): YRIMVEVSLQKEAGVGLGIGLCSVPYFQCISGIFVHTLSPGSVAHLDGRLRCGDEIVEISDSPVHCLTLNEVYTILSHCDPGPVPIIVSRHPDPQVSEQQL
Chain of RIMS2, Q9UQ26 (Q9UQ26 637-758): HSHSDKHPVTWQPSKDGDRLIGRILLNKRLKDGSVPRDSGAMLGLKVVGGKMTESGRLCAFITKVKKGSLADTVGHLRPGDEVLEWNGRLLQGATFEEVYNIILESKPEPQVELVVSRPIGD
Chain of PDLIM4, P50479 (P50479 1-83): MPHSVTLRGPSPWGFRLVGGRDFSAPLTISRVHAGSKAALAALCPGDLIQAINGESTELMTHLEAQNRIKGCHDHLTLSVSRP
Chain of PARD3_1, Q8TEW0 (Q8TEW0 264-372): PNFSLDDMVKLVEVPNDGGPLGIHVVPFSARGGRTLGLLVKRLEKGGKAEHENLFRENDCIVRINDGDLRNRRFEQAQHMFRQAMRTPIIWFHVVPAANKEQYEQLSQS
Chain of MAGI1_5, Q96QZ7 (Q96QZ7 986-1098): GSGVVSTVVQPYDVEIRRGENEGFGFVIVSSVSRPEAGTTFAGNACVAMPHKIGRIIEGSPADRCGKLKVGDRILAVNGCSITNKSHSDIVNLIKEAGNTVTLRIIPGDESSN
Chain of SCRIB_4, Q14160 (Q14160 1095-1204): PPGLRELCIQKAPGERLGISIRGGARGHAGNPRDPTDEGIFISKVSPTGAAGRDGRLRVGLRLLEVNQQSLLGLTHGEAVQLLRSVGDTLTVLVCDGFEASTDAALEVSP

RRRRSQSRESQC [HBV-HBc, P03193]
4.51: DLG2_1, Q15700; [1]
5.58: GIPC1, O14908
4.94: PTPN4, P29074; [1]
below the threshold: APBA3_2, O96018; [1] | CNKSR3, Q6P9H4; [1] | IL16_2, Q14005; [1] | LNX2_1, Q8N448; [1] | MAGI1_5, Q96QZ7; [1] | MAGI3_3, Q5TCQ9; [1] | MPDZ_2, O75970; [1] | MPDZ_7, O75970; [1] | MPP1, Q00013; [1] | PARD3B_3, Q8TEW8; [1] | PARD3_1, Q8TEW0; [1] | PDLIM4, P50479; [1] | PDZD2_1, O15018; [1] | PDZD4, Q76G19; [1] | PDZD8, Q8NEN9; [1] | PDZD9, Q8IXQ8 | PREX2_2, Q70Z35; [1] | RIMS1, Q86UR5; [1] | RIMS2, Q9UQ26 | SCRIB_4, Q14160; [1] | SDCBP_1, O00560; [1] | SHROOM4, Q9ULL8; [1]

RYEDTTLVEDTVL [WNV-NS5, Q9Q6P4]
below the threshold: APBA3_2, O96018; [1] | GIPC1, O14908 | IL16_2, Q14005; [1] | LNX2_1, Q8N448; [1] | MAGI3_3, Q5TCQ9; [1] | MPDZ_2, O75970; [1] | MPDZ_7, O75970; [1] | MPP1, Q00013; [1] | PARD3_1, Q8TEW0; [1] | PDLIM4, P50479; [1] | PDZD2_1, O15018; [1] | PDZD4, Q76G19; [1] | PDZD8, Q8NEN9; [1] | PDZD9, Q8IXQ8 | PREX2_2, Q70Z35; [1] | PTPN4, P29074; [1] | RIMS1, Q86UR5; [1] | RIMS2, Q9UQ26 | SCRIB_4, Q14160; [1] | SDCBP_1, O00560; [1] | SHROOM4, Q9ULL8; [1]
4.28: DLG2_1, Q15700; [1]
3.84: MAGI1_5, Q96QZ7; [1]
4.05: PARD3B_3, Q8TEW8; [1]

SSRTRRETQL [HPV16-E6_-2P, P03126]
below the threshold: APBA3_2, O96018; [2] | CNKSR3, Q6P9H4; [2] | DLG2_1, Q15700; [2] | IL16_2, Q14005; [2] | LNX2_1, Q8N448; [2] | MAGI1_5, Q96QZ7; [2] | MAGI3_3, Q5TCQ9; [2] | MPDZ_2, O75970; [2] | MPDZ_7, O75970; [2] | MPP1, Q00013; [2] | PARD3B_3, Q8TEW8; [2] | PARD3_1, Q8TEW0; [2] | PDLIM4, P50479; [2] | PDZD2_1, O15018; [2] | PDZD4, Q76G19; [2] | PDZD8, Q8NEN9; [2] | PREX2_2, Q70Z35; [2] | PTPN4, P29074; [2] | RIMS1, Q86UR5; [2] | SCRIB_4, Q14160; [2] | SDCBP_1, O00560; [2] | SHROOM4, Q9ULL8; [2]

QQSMSSADSTQA [SARS-Cov2-N, P0DTC9]
3.78: MAGI3_3, Q5TCQ9; [1]
4.46: GIPC1, O14908
below the threshold: APBA3_2, O96018; [1] | CNKSR3, Q6P9H4; [1] | DLG2_1, Q15700; [1] | IL16_2, Q14005; [1] | LNX2_1, Q8N448; [1] | MAGI1_5, Q96QZ7; [1] | MPDZ_2, O75970; [1] | MPDZ_7, O75970; [1] | MPP1, Q00013; [1] | PARD3B_3, Q8TEW8; [1] | PARD3_1, Q8TEW0; [1] | PDLIM4, P50479; [1] | PDZD2_1, O15018; [1] | PDZD4, Q76G19; [1] | PDZD8, Q8NEN9; [1] | PDZD9, Q8IXQ8 | PREX2_2, Q70Z35; [1] | PTPN4, P29074; [1] | RIMS1, Q86UR5; [1] | RIMS2, Q9UQ26 | SCRIB_4, Q14160; [1] | SDCBP_1, O00560; [1] | SHROOM4, Q9ULL8; [1]

— article PMC9482650, “Quantitative fragmentomics allow affinity mapping of interactomes” (Nature Communications, 2022)
